Molecular target: HA of A/Vietnam/1203/04 on pseudotyped virus (H5-VN04 pseudovirus) (influenza A virus A/Vietnam/1203/04 …)
Test: cell-based or functional assay

B1: 3I14 VLD94N IgG1 (antibody, V domains shown)
VH: QVQLLESGGGVVQPGRSLRLSCAASGFTFSNYGMHWVRQAPGKGLEWVAIISFDGSKKYYANSVKGRSTISRDNSKNTLSLQMNSLGPEDTALYYCAKLPSPYYFDSRFVWVAASAFHFWGQGILVTVSS
VL: NFMLTQPPSASGTPGQRVTISCSGSSSNIGGNTVHWFQQLPGTAPKLLIYTNSLRPSGVPDRFSGSKSGTSASLAISGLQSEDEADYYCAAWDNSLNGQVFGGGTKLTVL
IC50, neutralization of H5-VN04 pseudovirus: 8.65 ng/mL
